Assay [1] has as its target KGFR-HFc fusion protein (construct not specified). The experiment in a line: binding of 125I-KGF to KGFR-HFc in solution, capture on Gamma Bind G.
Assay [2] concerns the target keratinocyte growth factor receptor (KGFR) (UniProt P21803). The experiment in a line: competition with 125I-KGF on 32D cells expressing KGFR.
Assay [3] has the same target. The assay is described as follows: cell-based or functional assay.

B1: keratinocyte growth factor (KGF) (ligand, human, UniProt P21781 32-194, looked up)
chain: CNDMTPEQMATNVNCSSPERHTRSYDYMEGGDIRVRRLFCRTQWYLRIDKRGKVKGTQEMKNNYNIMEIRTVAVGIVAIKGVESEFYLAMNKEGKLYAKKECNEDCNFKELILENHYNTYASAKWTHNGGEMFVALNQKGIPVRGKKTKKEQKTAHFLPMAIT
As to B1, the ligand concentration at which saturable binding was achieved in assay [1] lay in the range of 15 to 25 ng/mL. The molecule further showed an equilibrium dissociation constant (Kd) in assay [2] of 0.13 nM. Moreover, the half-maximal stimulation of 3H-thymidine uptake in BALB/MK cells in assay [3] amounted to 10 pM.

These data come from patent publication US6403769.
